Data on two substances can be found in patent US20140037642A1, “METHODS AND COMPOSITIONS RELATING TO INHIBITION OF IGF-1R” (AMGEN INC., priority 2011, published 2014).

Experiment [1] deals with hu IGF-1R(ECD)-C3-muIgG1Fc (human; mouse). The experiment is described as follows: ORIGEN competition with 1 nM Ru-IGF-1 for IGF-1R(ECD)-C3-muFc on beads.
The target is the same in experiment [2]. Nature of the experiment: ORIGEN competition with 2 nM Ru-IGF-2 for IGF-1R(ECD)-C3-muFc on beads.

In general, Ki refers to a measure of affinity in units of concentration, obtained from inhibition or displacement. Low readings indicate tighter binding, high ones weaker binding.

Turning to “murine anti-IGF-1R antibody αIR3 (Calbiochem)”, in experiment [1], the Ki is 5.3 nM and the Max (%), maximum level of inhibition at 1 µM antibody amounted to 91%.
For “murine anti-IGF-1R antibody 1H7 (Santa Cruz Biotechnology)”, in experiment [1], the Ki was 16 nM and the Max (%), maximum level of inhibition at 1 µM antibody was 89%. Also, in experiment [2], the Ki was determined as 13.1 nM and the Max (%), maximum level of inhibition at 1 µM antibody was 99%.
